Source: publication PMC6466456
Read-outs that look alike come from different tables or passages of the source.

Legend:
[1] = biological target: T1, EGFR, human recombinant, hIgG1-Fc tag (Sino Biological) (Homo sapiens, UniProt P00533 25-645); assay: thermofluorimetric analysis
[2] = biological target: T1, EGFR, human recombinant, hIgG1-Fc tag …; assay: flow cytometry, EGFR-coated microspheres
[3] = biological target: T1, EGFR, human recombinant, hIgG1-Fc tag …; assay: thermofluorimetric analysis; remark: listed apart in the source
[4] = biological target: T1, EGFR, human recombinant, hIgG1-Fc tag …; assay: thermofluorimetric analysis; remark: listed apart in the source

B1: KM4 (ssDNA)
DNA: CTTACCTCTTTCTCCCACCGCCCCAAACATAATTGGTATACCGCAACACAACGCACAACACACAACAATCAAT
[1]
  Kd: ~1 nM

B2: KM4-FITC (ssDNA)
DNA: CTTACCTCTTTCTCCCACCGCCCCAAACATAATTGGTATACCGCAACACAACGCACAACACACAACAATCAAT
modifications: 5' AmMC6
[2]
  Kd: 46 nM

B3: NS-DNA (ssDNA)
DNA: CGACATCTTTAACCTAGCCCTTGTCAGTGCTCTATGACAAGGTGTGTAGACGACATCTAACCTAGC
[3]
  binding result: no binding

B4: LINN2 (ssDNA)
DNA: CCGCTTTATTGTTAATTAAGTTTTATATTTCGCACAACACACAACAATCAATATC
[4]
  binding result: binds
